According to US20170129959A1 (OSE IMMUNOTHERAPEUTICS, published 2017):
Changes are numbered by the printed parent chain. Numbers in names are those of the source. Where “and” joins values, the source holds several entries; their conditions need not be identical. Identical values can stand only once.

How the values were obtained:
[1] = molecular target: T1, Recombinant hCD127 (Sino Biologicals, reference 10975-H08H) (human, UniProt P16871 21-239); experiment: ELISA, recombinant hCD127 coated on plastic at 1 µg/ml, antibody titrated; printed as ED 50
T1 construct: Bought protein; also called recombinant hCD127 antigen; rCD127
T1 chain: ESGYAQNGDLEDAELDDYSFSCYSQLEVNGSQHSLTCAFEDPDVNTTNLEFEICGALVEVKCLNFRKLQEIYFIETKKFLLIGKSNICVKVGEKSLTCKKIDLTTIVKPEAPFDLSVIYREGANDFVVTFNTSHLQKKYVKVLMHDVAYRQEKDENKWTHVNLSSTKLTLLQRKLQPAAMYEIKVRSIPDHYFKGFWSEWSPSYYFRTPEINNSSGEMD
Procedure: FIG. 4. The Anti CD127 activity of the new antibody N13B2 was measured by ELISA assay using a recombinant hCD127 antigen. OD 450 nm: optical density at 450 nm. A. The CD127 binding activity of the N13B2 (full circle) was compared to the previous antibody generation (MD707-1 (empty diamond), 3 (empty triangle) and 6 (full square)). N13B2 appears as the most efficient binder in the assay. B. The CD127 activity between different N13B2 formats (rat, IgG1 (circle) or IgG4 (square)) was compared. No significant difference in binding activity was observed.
(§1) The binding activity of the anti hCD127 antibody was assessed by ELISA (Enzyme-linked immunosorbent assay). For the ELISA assay, recombinant hCD127 (Sino Biologicals, Beijing, China; reference 10975-H08H) was immobilized on plastic at 1 μg/ml and purified antibody were added to measure binding.

[2] = molecular target: T2, Human CD127 (IL-7 receptor alpha chain) expressed on cells (human, UniProt P16871 21-459); experiment: cell-based or functional assay
T2 chain: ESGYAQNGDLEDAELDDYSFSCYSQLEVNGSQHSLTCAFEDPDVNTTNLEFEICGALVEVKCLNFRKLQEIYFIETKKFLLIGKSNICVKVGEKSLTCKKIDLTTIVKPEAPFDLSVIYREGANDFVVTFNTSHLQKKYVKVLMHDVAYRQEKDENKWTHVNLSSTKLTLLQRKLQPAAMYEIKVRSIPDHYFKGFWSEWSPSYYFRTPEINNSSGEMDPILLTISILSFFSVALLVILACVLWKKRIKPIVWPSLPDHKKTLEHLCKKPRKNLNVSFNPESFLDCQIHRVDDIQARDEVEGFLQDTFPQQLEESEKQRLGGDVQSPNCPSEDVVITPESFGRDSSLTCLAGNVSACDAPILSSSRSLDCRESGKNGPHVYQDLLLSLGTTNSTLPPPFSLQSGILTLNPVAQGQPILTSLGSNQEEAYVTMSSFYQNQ

[3] = molecular target: T3, Recombinant CD127 Fc Chimera (10975-H03H, Sino Biological) (human, UniProt P16871 21-239); experiment: SPR (Biacore 3000), CD127Fc immobilised on CM5 chip, antibody injected, Bivalent analyte model; separate experiment
T3 construct: Bought protein; also called hCD127-Ig; human CD127Fc; not shown: constant fragment of an immunoglobulin
T3 chain: T1 chain
Procedure: (§2) A CM5 chip (GE healthcare) was activated by injection of NHS/EDC mix for 7 min. […] The free reactive residues were inactivated by the injection of 1M ethanolamine pH8.5. […] The injection rate was set at 40 μL/min, the association was measured for 3 min and dissociation for 10 min. Between each cycle of the analysis, the chip was regenerated by injection of a solution of 5M MgCl2 for 60 s.

[4] = molecular target: T2, Human CD127 (IL-7 receptor alpha chain) …; experiment: cell-based or functional assay
[5] = molecular target: T2, Human CD127 (IL-7 receptor alpha chain) …; experiment: cell-based or functional assay
[6] = molecular target: T3, Recombinant CD127 Fc Chimera …; experiment: ELISA, human CD127Fc coated, revealed with anti-human kappa antibody; printed as ED 50
[7] = molecular target: T3, Recombinant CD127 Fc Chimera …; experiment: ELISA, coated human CD127Fc, revealed with an anti-human kappa antibody
[8] = molecular target: T1, Recombinant hCD127 (Sino Biologicals, …); experiment: ELISA on immobilised recombinant hCD127; antibody after four frost/defrost events
[9] = molecular target: T1, Recombinant hCD127 (Sino Biologicals, …); experiment: ELISA on immobilised recombinant hCD127; antibody stored 7 days at 37 °C
Procedure: (§3) FIG. 15. Stability assay of humanized versus Rat anti-CD127 antibodies. Antibody concentrations was measured by ELISA after 7 days at 37° C. (Rat N13B2 wt (+) or humanized N13B2 h3 (square)) and at −80° C. (Rat N13B2 wt (X) or humanized N13B2 h3 (triangle)) and after four frost/defrost events (diamonds).
(§4) Humanized and chimeric purified N13B2-G1 were incubated at 37° C. or at −80° C. for 7 days. Two assays were used to measure stability of antibody: binding anti-CD127 by ELISA assay, and aggregate formation by gel filtration. For activity ELISA assay, recombinant hCD127 (Sino Biologicals, Beijing, China; reference 10975-H08H) was immobilized on plastic at lpg/ml and dilutions of supernatant were added to measure binding. […] For analysis of aggregate formation, sample was analysed on gel filtration chromatography column (Superdex 200, 10/300GL, GeHealthcare) to separate and evaluate aggregate and monomer from samples.

[10] = molecular target: T1, Recombinant hCD127 (Sino Biologicals, …); experiment: ELISA on coated recombinant hCD127, anti-human kappa detection; antibody stored 7 days at 37 °C; printed as ED 50
Procedure: as §3, §4

[11] = molecular target: T1, Recombinant hCD127 (Sino Biologicals, …); experiment: ELISA on immobilised recombinant hCD127; antibody stored 7 days at -80 °C
Procedure: as §3, §4

[12] = molecular target: T1, Recombinant hCD127 (Sino Biologicals, …); experiment: ELISA on coated recombinant hCD127, anti-human kappa detection; antibody after 4 frost/defrost events; printed as ED 50
[13] = molecular target: T1, Recombinant hCD127 (Sino Biologicals, …); experiment: ELISA on coated recombinant hCD127, anti-human kappa detection; antibody stored 7 days at -80 °C; printed as ED 50
Procedure: as §3, §4

[14] = molecular target: T3, Recombinant CD127 Fc Chimera …; experiment: SPR (Biacore 3000), CD127Fc immobilised on CM5 chip, antibody injected, Bivalent analyte model
Procedure: FIG. 3. (A) Binding studies of rat N13B2 anti-CD127 antibody. N13B2 antibody or MD707-1 were injected on a CD127 immobilized antigen at different concentration. Resp. diff: Response difference. Time: time in sec (total duration: 20 min). Blk: blank (no antibody). The association and dissociation curves were analyzed with model “Bivalent analyte” on BIAeval 4 software.
as §2

[15] = molecular target: T1, Recombinant hCD127 (Sino Biologicals, …); experiment: ELISA on immobilised recombinant hCD127
Procedure: as §1

B1: MD707-3 (rat anti-human CD127 antibody, previous generation) (antibody, V domains shown)
VH: AVHLVESGGGLVQPKESLKISCAASGFTFSNAAMYWVRQAPGKGLEWVARIRTKANNYATYYAESVKGRFTISRDDSKSMVYLQMDNVKTDDTAMYYCIVVVLTTTRDYFDYWGQGVMVTVSS
VL: DIVLTQAPLSVSVTPGESASISCRSSQSLLTVKGITSLYWFLQKPGKSPQLLIYRMSNLASGVPDRFRGSGSETDFTLKISKVETEDVGVYYCAQFLEYPHTFGAGTKLELKR
EC50 [1]: 293 ng/mL
IC50 on P-STAT5 induced by 100 pg/ml of rhIL7 [2]: 1.09 ng/mL

B2: N13B2-G4 (chimeric N13B2, human IgG4 Fc S228P, human CL kappa) (antibody)
heavy: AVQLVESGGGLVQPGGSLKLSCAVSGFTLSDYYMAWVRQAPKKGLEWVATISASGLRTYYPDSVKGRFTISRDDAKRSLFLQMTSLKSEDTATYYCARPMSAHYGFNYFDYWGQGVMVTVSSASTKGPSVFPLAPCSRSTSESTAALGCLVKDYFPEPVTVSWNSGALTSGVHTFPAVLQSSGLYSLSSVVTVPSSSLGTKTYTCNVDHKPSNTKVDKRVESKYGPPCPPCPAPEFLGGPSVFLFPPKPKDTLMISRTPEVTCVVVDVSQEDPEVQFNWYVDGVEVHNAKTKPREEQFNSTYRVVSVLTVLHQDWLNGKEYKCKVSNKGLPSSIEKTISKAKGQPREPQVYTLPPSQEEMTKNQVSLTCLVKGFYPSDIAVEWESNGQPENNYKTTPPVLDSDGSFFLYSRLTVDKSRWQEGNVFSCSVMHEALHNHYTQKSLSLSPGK
light: DIQMTQSPASLSASLGETVTIECRTSEDIYNGLAWYQQKPGKSPQLLVYSANSLHIGVPSRFSGSGSGTQYSLKINSLQFEDVASYFCQQYYDYPLAFGSGTKLEIKRTVAAPSVFIFPPSDEQLKSGTASVVCLLNNFYPREAKVQWKVDNALQSGNSQESVTEQDSKDSTYSLSSTLTLSKADYEKHKVYACEVTHQGLSSPVTKSFNRGEC
notes: also called cN13B2-G4; N13B2-G4m
EC50 [1]: 12.6 ng/mL
Ka [3]: 5.89e+09 M⁻¹
Kd [3]: 0.17 nM
koff [3]: 3.41e-06 s⁻¹
kon [3]: 20100 M⁻¹ s⁻¹
inhibition of STAT5 phosphorylation in human PBMC [4]: > 50 % inhibition at 50 ng/ml and > 80 % inhibition at 100 ng/ml (0.1 ng/ml IL-7) and > 90 % inhibition at 100 ng/ml (5 ng/ml IL-7)
IC50 on P-STAT5 induced by 100 pg/ml of rhIL7 [2]: 0.037 ng/mL

B3: N13B2-G1 (chimeric N13B2, human IgG1 Fc E333A, human CL kappa) (antibody)
heavy: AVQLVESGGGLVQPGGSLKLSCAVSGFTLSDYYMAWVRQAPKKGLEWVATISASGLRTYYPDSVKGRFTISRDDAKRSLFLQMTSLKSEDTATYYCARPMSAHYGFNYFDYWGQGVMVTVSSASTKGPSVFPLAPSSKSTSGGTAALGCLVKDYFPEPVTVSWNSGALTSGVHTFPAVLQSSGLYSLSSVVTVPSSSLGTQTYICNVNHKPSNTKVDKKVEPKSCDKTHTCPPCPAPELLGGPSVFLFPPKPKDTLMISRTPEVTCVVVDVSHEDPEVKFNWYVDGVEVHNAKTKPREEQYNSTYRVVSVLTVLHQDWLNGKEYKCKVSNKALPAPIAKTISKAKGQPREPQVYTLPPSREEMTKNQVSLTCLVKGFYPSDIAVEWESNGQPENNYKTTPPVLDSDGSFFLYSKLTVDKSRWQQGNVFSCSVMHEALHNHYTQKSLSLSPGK
light: B2 light
notes: also called cN13B2-G1; N13B2-G1m
EC50 [1]: 12 ng/mL
Ka [3]: 2.65e+09 M⁻¹
Kd [3]: 0.377 nM
koff [3]: 5.62e-05 s⁻¹
kon [3]: 149000 M⁻¹ s⁻¹
inhibition of STAT5 phosphorylation in human PBMC [4]: > 50 % inhibition at 50 ng/ml and > 80 % inhibition at 100 ng/ml (0.1 ng/ml IL-7) and > 90 % inhibition at 100 ng/ml (5 ng/ml IL-7)
IC50 on P-STAT5 induced by 100 pg/ml of rhIL7 [2]: 0.028 ng/mL

B4: N13B2-h2 (humanized N13B2) (antibody, V domains shown)
VH: QVQLVESGGGLVKPGGSLRLSCAVSGFTLSDYYMAWIRQAPGKGLEWVSTISASGLRTYYPDSVKGRFTISRDNAKNSLYLQMNSLRAEDTAVYYCARPMSAHYGFNYFDYWGQGTLVTVSS
VL: EIVMTQSPATLSVSPGERATLSCRTSEDIYNGLAWYQQKPGQAPRLLIYSANSLHIGIPARFSGSGSGTEFTLTISSLQSEDFAVYYCQQYYDYPLAFGGGTKVEIK
notes: Variable regions only
IC 50 of inhibition of IL7 induced P-STAT5 on T lymphocytes (0.1 ng/ml rhIL-7) [5]: 18.7 ng/mL
EC50 [6]: 0.6 ng/mL

B5: N13B2-h1 (humanized N13B2) (antibody, V domains shown)
VH: B4 VH with I37V, S49A, N74D
VL: B4 VL with I48V, F71Y, Y87F
IC 50 of inhibition of IL7 induced P-STAT5 on T lymphocytes (0.1 ng/ml rhIL-7) [5]: 63.8 ng/mL
EC50 [6]: 2.4 ng/mL
EC50 (read off the curve) [7]: ~2 ng/mL

B6: N13B2-h3 (humanized N13B2) (antibody, IgG4, V domains shown)
VH: B4 VH with M100L
VL: B4 VL with N31Q, S53T
notes: Variable regions only
EC50 (read off the curve) [8]: ~2 ng/mL
EC50 (read off the curve) [9]: ~1 ng/mL
IC 50 of inhibition of IL7 induced P-STAT5 on T lymphocytes (0.1 ng/ml rhIL-7) [5]: 21.2 ng/mL
EC50 [6]: 0.6 ng/mL
EC50 [10]: 1.1 ng/mL
EC50 (read off the curve) [11]: ~1 ng/mL
EC50 [12]: 1.7 ng/mL
EC50 [13]: 1.3 ng/mL

B7: N13B2 wt (antibody, V domains shown)
VH: AVQLVESGGGLVQPGGSLKLSCAVSGFTLSDYYMAWVRQAPKKGLEWVATISASGLRTYYPDSVKGRFTISRDDAKRSLFLQMTSLKSEDTATYYCARPMSAHYGFNYFDYWGQGVMVTVSS
VL: DIQMTQSPASLSASLGETVTIECRTSEDIYNGLAWYQQKPGKSPQLLVYSANSLHIGVPSRFSGSGSGTQYSLKINSLQFEDVASYFCQQYYDYPLAFGSGTKLEIKR
notes: also called Rat N13B2 wt
EC50 (read off the curve) [9]: ~4 ng/mL
IC 50 of inhibition of IL7 induced P-STAT5 on T lymphocytes (0.1 ng/ml rhIL-7) [5]: 50.2 ng/mL
EC50 [6]: 3 ng/mL
EC50 [10]: 3.5 ng/mL
EC50 (read off the curve) [7]: ~3 ng/mL
EC50 (read off the curve) [11]: ~3 ng/mL
EC50 [13]: 3.6 ng/mL

B8: N13B2 (rat anti-human CD127 monoclonal antibody) (antibody, V domains shown)
VH: B7 VH
VL: B7 VL
notes: Rat hybridoma antibody; It was detected with anti-rat kappa; also called rat N13B2; N13B2 mAb
Ka [14]: 1.26e+10 M⁻¹
Kd [14]: 0.0796 nM
koff [14]: 1.6e-05 s⁻¹
kon [14]: 201000 M⁻¹ s⁻¹
EC50 [1]: 65.6 ng/mL
Ka [3]: 2.03e+10 M⁻¹
Kd [3]: 0.0493 nM
koff [3]: 4.75e-06 s⁻¹
kon [3]: 96300 M⁻¹ s⁻¹
inhibition of STAT5 phosphorylation in human PBMC [4]: > 50 % inhibition at 50 ng/ml and > 80 % inhibition at 100 ng/ml (0.1 ng/ml IL-7) and > 90 % inhibition at 100 ng/ml (5 ng/ml IL-7)
IC50 on P-STAT5 induced by 100 pg/ml of rhIL7 [2]: 0.043 ng/mL
EC50 (read off the curve) [15]: ~60 ng/mL
